Experimental findings from patent publication US20240101695A1 (University of California, published 2024) are described below.

One experiment deals with T1, human FcεRI (human, UniProt P12319 26-257).
T1 construct: whole, on cells; Multi-subunit receptor; In the PCA assay it is the humanized FcεRI of transgenic huFcεRI mice; also called huFcεRI
T1 sequence (looked up): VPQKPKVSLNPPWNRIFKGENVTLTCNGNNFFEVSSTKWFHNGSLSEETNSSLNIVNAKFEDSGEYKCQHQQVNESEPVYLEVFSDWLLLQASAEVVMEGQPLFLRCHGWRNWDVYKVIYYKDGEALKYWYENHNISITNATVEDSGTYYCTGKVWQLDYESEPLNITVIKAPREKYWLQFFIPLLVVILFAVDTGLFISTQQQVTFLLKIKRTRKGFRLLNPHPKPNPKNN
The experiment can be described thus: flow cytometry on RBL SX-38 cells expressing human FcεRI. As for the experimental part: Human MM cells (MM.1S) expressing CD138 were incubated with either IgE isotype control (non-targeting control), anti-CD138 IgG1, or anti-CD138 IgE. The rat basophilic leukemia cells RBL SX-38 expressing human FcεRI were incubated with either IgE isotype control, anti-CD138 IgG1, or anti-CD138 IgE. Antibody binding was detected using a PE-conjugated goat F(ab′)₂ anti-human κ antibody. Grey line histograms represent cells incubated with secondary antibody only (“no antibody”). Black line histograms represent cells incubated with primary antibodies (IgE isotype control, anti-CD138 IgG1, or anti-CD138 IgE).
Human MM cells (MM.1S) expressing TfR1 were incubated with either IgE isotype control (non-targeting control) or anti-TfR1 IgE. […] Antibody binding was detected using a PE-conjugated mouse IgG1 anti-human IgE antibody. […]
Antigen binding of the anti-CD38 IgE, anti-CD138 IgE, and anti-TfR1 IgE antibodies was studied by flow cytometry using the human multiple myeloma (MM) cell line MM.1S purchased from the American Type Culture Collection (ATCC, Manassas, VA, USA; ATCC® CRL-2974™). […] Binding to FcεRI was also assessed by flow cytometry using the rat basophilic leukemia cell line RBL SX-38 expressing human FcεRI¹¹³ kindly provided by Dr. Jean-Pierre Kinet (Beth Israel Deaconess Medical Center, Boston, MA, USA). […]
A general note: Flow cytometry measures light scatter and fluorescence of single cells or particles in a stream.

In another experiment the target is T2, human CD138 (human, UniProt P18827 23-310).
T2 construct: whole, on cells; Endogenous antigen on MM.1S, MDA-MB-468 and SK-BR-3 cells; also called syndecan-1
T2 sequence (looked up): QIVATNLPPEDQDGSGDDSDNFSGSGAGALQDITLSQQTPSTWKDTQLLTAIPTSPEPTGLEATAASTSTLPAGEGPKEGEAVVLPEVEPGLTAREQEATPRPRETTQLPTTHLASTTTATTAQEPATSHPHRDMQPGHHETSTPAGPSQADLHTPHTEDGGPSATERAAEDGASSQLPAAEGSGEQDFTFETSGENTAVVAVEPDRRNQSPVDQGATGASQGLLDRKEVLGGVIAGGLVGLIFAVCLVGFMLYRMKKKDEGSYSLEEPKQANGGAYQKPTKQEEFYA
The experiment can be described thus: flow cytometry on MDA-MB-468 and SK-BR-3 cells expressing CD138. As to the method:
Human triple negative breast cancer (TNBC) cells (MDA-MB-468) and human HER2/neu positive breast cancer cells (SK-BR-3) expressing CD138 were incubated with either IgE isotype control (non-targeting control) or anti-CD138 IgE. Antibody binding was detected using a PE-conjugated goat F(ab′)₂ anti-human κ antibody. Grey filled histograms represent cells incubated with secondary antibody only (“no antibody”). Empty black line histograms represent cells incubated with primary antibodies (IgE isotype control or anti-CD138 IgE).
(§1) Antigen binding of the anti-CD38 IgE, anti-CD138 IgE, and anti-TfR1 IgE antibodies was studied by flow cytometry using the human multiple myeloma (MM) cell line MM.1S purchased from the American Type Culture Collection (ATCC, Manassas, VA, USA; ATCC® CRL-2974™). […] Binding to FcεRI was also assessed by flow cytometry using the rat basophilic leukemia cell line RBL SX-38 expressing human FcεRI¹¹³ kindly provided by Dr. Jean-Pierre Kinet (Beth Israel Deaconess Medical Center, Boston, MA, USA). […] Samples were analyzed on a BD LSRII analytical flow cytometer (BD Biosciences, San Jose, CA, USA) and 10,000 events were collected. […]

Experiment [1] deals with T3, human transferrin receptor 1 (TfR1) (human, UniProt P02786 1-760).
T3 construct: whole, on cells; Endogenous antigen on MM.1S cells; also called transferrin receptor protein 1; CD71
The experiment can be described thus: flow cytometry on MM.1S cells expressing TfR1. As for the experimental part:
Human MM cells (MM.1S) expressing TfR1 were incubated with either IgE isotype control (non-targeting control) or anti-TfR1 IgE. The rat basophilic leukemia cells RBL SX-38 expressing human FcεRI were incubated with either IgE isotype control or anti-TfR1 IgE. Antibody binding was detected using a PE-conjugated mouse IgG1 anti-human IgE antibody. Grey filled histograms represent cells incubated with secondary antibody only (“no antibody”). Empty black line histograms represent cells incubated with primary antibodies (IgE isotype control or anti-TfR1 IgE).
as §1

T3 sequence (P02786 whole entry): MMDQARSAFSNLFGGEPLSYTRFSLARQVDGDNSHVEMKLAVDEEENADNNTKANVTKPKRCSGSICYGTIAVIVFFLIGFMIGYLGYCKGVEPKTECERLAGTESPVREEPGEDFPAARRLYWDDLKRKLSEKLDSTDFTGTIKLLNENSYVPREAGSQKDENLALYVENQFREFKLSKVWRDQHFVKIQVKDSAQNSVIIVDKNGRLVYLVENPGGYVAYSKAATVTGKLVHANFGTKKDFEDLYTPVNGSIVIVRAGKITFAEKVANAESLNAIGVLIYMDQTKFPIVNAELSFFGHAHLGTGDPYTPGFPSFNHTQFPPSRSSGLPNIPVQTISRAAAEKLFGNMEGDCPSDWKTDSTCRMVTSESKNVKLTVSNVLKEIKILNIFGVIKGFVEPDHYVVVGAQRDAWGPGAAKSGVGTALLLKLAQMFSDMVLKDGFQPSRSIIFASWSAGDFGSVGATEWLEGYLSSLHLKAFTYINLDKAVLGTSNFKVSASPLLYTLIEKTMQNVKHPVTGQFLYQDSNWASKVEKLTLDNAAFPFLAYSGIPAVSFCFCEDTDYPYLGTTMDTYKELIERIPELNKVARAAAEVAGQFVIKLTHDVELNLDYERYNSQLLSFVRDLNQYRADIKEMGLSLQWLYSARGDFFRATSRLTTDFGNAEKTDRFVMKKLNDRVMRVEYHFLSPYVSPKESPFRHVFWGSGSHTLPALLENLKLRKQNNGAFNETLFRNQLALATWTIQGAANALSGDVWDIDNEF

B1: anti-CD138 IgE (antibody)
heavy: QVQLQQSGSELMMPGASVKISCKATGYTFSNYWIEWVKQRPGHGLEWIGEILPGTGRTIYNEKFKGKATFTADISSNTVQMQLSSLTSEDSAVYYCARRDYYGNFYYAMDYWGQGTSVTVSSASTQSPSVFPLTRCCKNIPSNATSVTLGCLATGYFPEPVMVTWDTGSLNGTTMTLPATTLTLSGHYATISLLTVSGAWAKQMFTCRVAHTPSSTDWVDNKTFSVCSRDFTPPTVKILQSSCDGGGHFPPTIQLLCLVSGYTPGTINITWLEDGQVMDVDLSTASTTQEGELASTQSELTLSQKHWLSDRTYTCQVTYQGHTFEDSTKKCADSNPRGVSAYLSRPSPFDLFIRKSPTITCLVVDLAPSKGTVNLTWSRASGKPVNHSTRKEEKQRNGTLTVTSTLPVGTRDWIEGETYQCRVTHPHLPRALMRSTTKTSGPRAAPEVYAFATPEWPGSRDKRTLACLIQNFMPEDISVQWLHNEVQLPDARHSTTQPRKTKGSGFFVFSRLEVTRAEWEQKDEFICRAVHEAASPSQTVQRAVSVNPGK
light: DIQMTQSTSSLSASLGDRVTISCSASQGINNYLNWYQQKPDGTVELLIYYTSTLQSGVPSRFSGSGSGTDYSLTISNLEPEDIGTYYCQQYSKLPRTFGGGTKLEIKRTVAAPSVFIFPPSDEQLKSGTASVVCLLNNFYPREAKVQWKVDNALQSGNSQESVTEQDSKDSTYSLSSTLTLSKADYEKHKVYACEVTHQGLSSPVTKSFNRGEC
notes: Mouse/human chimeric IgE; also called CD138-Targeted Antibody; anti-CD138 IgE antibody
B1: the binding result with human FcεRI and with human CD138 was “binds” each time.

B2: anti-TfR1 IgE (antibody)
heavy: EVQLQQSGPELVKPGASMKISCKASGYSFTGYTMNWVKQSHGENLEWIGRINPHNGGTDYNQKFKDKAPLTVDKSSNTAYMELLSLTSGDSAVYYCARGYYYYSLDYWGQGTSVTVSSASTQSPSVFPLTRCCKNIPSNATSVTLGCLATGYFPEPVMVTWDTGSLNGTTMTLPATTLTLSGHYATISLLTVSGAWAKQMFTCRVAHTPSSTDWVDNKTFSVCSRDFTPPTVKILQSSCDGGGHFPPTIQLLCLVSGYTPGTINITWLEDGQVMDVDLSTASTTQEGELASTQSELTLSQKHWLSDRTYTCQVTYQGHTFEDSTKKCADSNPRGVSAYLSRPSPFDLFIRKSPTITCLVVDLAPSKGTVNLTWSRASGKPVNHSTRKEEKQRNGTLTVTSTLPVGTRDWIEGETYQCRVTHPHLPRALMRSTTKTSGPRAAPEVYAFATPEWPGSRDKRTLACLIQNFMPEDISVQWLHNEVQLPDARHSTTQPRKTKGSGFFVFSRLEVTRAEWEQKDEFICRAVHEAASPSQTVQRAVSVNPGK
light: QIVLTQSPAIMSVSPGEKVTMTCSASSSIRYIHWYQQRPGTSPKRWIYDTSNLASGVPARFSGSGSGTSYSLTISSMEAEDAATYYCHQRNSYPWTFGGGTRLEIRRTVAAPSVFIFPPSDEQLKSGTASVVCLLNNFYPREAKVQWKVDNALQSGNSQESVTEQDSKDSTYSLSSTLTLSKADYEKHKVYACEVTHQGLSSPVTKSFNRGEC
notes: Mouse/human chimeric IgE; also called TfR1-Targeted Antibody; anti-TfR1 IgE antibody
Take B2: the binding result (in experiment [1]; with human FcεRI) was “binds” in each case.
